± gives the uncertainty stated by the source.

A short description of this data set: amyloid nucleation score (Sup35N fusion, yeast selection) (log enrichment); library NNK2; higher = more nucleation; inactive = no reads after selection. Summed up: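 Growth for 7 days at 30°C on medium lacking adenine and uracil followed a 24-hour induction with 100 μM copper sulfate of psi-negative yeast expressing peptides of 20 random codons fused to Sup35N. Input and output plasmid inserts were sequenced with Illumina, and sequences with under 100 input reads were excluded. Nucleation score is the DiMSum log enrichment of output over input reads, centred on the mode score of non-aggregating sequences.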
In turn, LTRMKT had an amyloid nucleation score of -0.311 ± 0.63.
The result for IDVLYCHDSL reads 0.311 ± 0.42.
IRQPSVKQPWTVAKTFH yielded an amyloid nucleation score of 0.052 ± 0.5.
The figure for GPRLEGWSPPDRAVLSGCSD is 0.656 ± 0.44; for DLRRSKSFDDTNEHWHSGFR it is -0.607 ± 0.64; for YILCYTVNCNAELSHLVCDI it is 7.154 ± 0.058.
The figure for ARWLSSAYSMIYEFSLLKSW is 0.706 ± 0.74; for AVRELVYDLLASKNFWTSNA it is 0.932 ± 0.2; for LAIVQ it is -0.256 ± 0.42.
The result for GCVCDVGPVTVRGVNGVLVS reads 1.45 ± 0.26; that for FDGLHVYQCWTPVNIARVEE, 0.099 ± 0.62; that for LRSSKKCYTILYVSYTLK, -1.15 ± 1.1.
In the case of RYNLKQCL, the amyloid nucleation score entry is “inactive”.
The figure for SNFQYSIKGQADRLPIVLVL is -0.373 ± 1; for ILSDKCLIGIGCSISSDTAG it is -0.352 ± 0.38; for CCFGVQVEGT it is -0.461 ± 0.79.
The figure for WFHVAAYAFRGTCYHLGGVL is 4.39 ± 0.096; for YTHVNRWTCCSSIEICDWSY it is 6.957 ± 0.047.
VYHLLFSGC had an amyloid nucleation score of 0.219 ± 0.33.
The figure for FGLTACH is -0.579 ± 0.54; for SRSYSNLWLGAHVLTRLRHD it is -0.337 ± 1.1; for CTSVGFTYHRDFWYMGFWSR it is 0.919 ± 0.15.
The result for KGMLGAASHSQIKFVCVFSW reads -0.493 ± 0.32; that for ILLVSATHYSQLNKGRPNDL, 1.43 ± 0.35.
The figure for WVDMAL is 0.168 ± 0.8; for FVSYED it is -0.793 ± 1.1; for GFTENKIRDVFGVFHFIVGD it is 0.479 ± 0.8.
Substance VPRFVCTHVDLIFGGNGCTF showed an amyloid nucleation score of 4.91 ± 0.075.
Consider CSFLYIGLVIPSFEYDHALL, for which the amyloid nucleation score is 4.171 ± 0.041.
YFGCQMMSN yielded an amyloid nucleation score of 0.459 ± 0.54.
For the substance LGRKR, the amyloid nucleation score was -0.725 ± 0.76.
The figure for FVYTLAYNRRWYSRAVSFES is -0.461 ± 0.79; for LRGYVY it is 0.228 ± 1.
The figure for RTYWGRKLNCVQF is 6.716 ± 0.04; for YQSFFVINLYNGLHTRGMRV it is 7.701 ± 0.055.
The figure for RNMVVGVGRRP is -0.15 ± 0.45; for NCLSM it is 3.36 ± 0.081; for CRSRT it is 0.978 ± 0.28.
As for RGTMVWTDCFMCLGLYKKVY, the amyloid nucleation score is -0.896 ± 0.56.
The result for NRSREELYARNKQYFSFI reads -0.986 ± 0.76; that for LGYKVSK, 2.63 ± 0.19; that for RWICWAMCSYLRRRKKP, 0.527 ± 0.65.
On to AGSARRLGLMPRGSGYALGW, for which the amyloid nucleation score amounted to 1.44 ± 0.17.
VLLFLSMEVLNRNGMKVPVM had an amyloid nucleation score of 2.17 ± 0.16.
In turn, YDDKGEIRLPDQSMNCFVSD came in with an amyloid nucleation score of -0.766 ± 1.
The result for YRRLRTNLLWRQSRSY reads 0.817 ± 0.54; that for VSVKRGAPKVGSTGPVYTCG, -0.306 ± 0.5.
The figure for FCPVFST is -0.127 ± 1; for VTIRDLFYGHVRQPDSQVVI it is 0.883 ± 0.52; for SIDEVGTANVPHGDW it is 0.741 ± 0.25.
Turning to STCKLWGVQWFPGGEDRNWK, the amyloid nucleation score is -0.155 ± 0.42.
The result for NFSIL reads -0.184 ± 1.1; that for CVHLLSVSGWDFQYYFQAFN, 1.17 ± 0.13; that for PWALTFNHCKIDDTKRGHIV, 0.64 ± 0.8.
The result for VLSCCIPKKNSYWTVTDQPC reads 8.266 ± 0.033; that for SGRRLRGSKVSGWR, -1.12 ± 0.76; that for TLLDNRRGCVMSWRGFLWMR, -0.363 ± 0.65.
In turn, IANYSFELFII gave an amyloid nucleation score of 2.87 ± 0.1.
With SSYRINPRKPLR, the amyloid nucleation score worked out at 0.028 ± 0.63.
For MDAYRCWAQMYRTYMLMCLV, the amyloid nucleation score came out at 0.039 ± 0.27.
The result for SKLVSYIDWVGSRILRYTCV reads -0.801 ± 1.1; that for ASITYNACLKPLQM, 0.313 ± 0.64; that for NYGSTLVDWRVRFTRTRTWS, 0.503 ± 0.3.
The result for CVDTSFCLYARELILCAR reads -0.121 ± 0.5; that for SCIYRE, -0.097 ± 0.21; that for FFLYFVFCF, 2.67 ± 0.085.
The result for RSLDVLTTVVMRAFNPTRLR reads 0.953 ± 0.36; that for GLVRSRVWRRASSPGYGECV, 1.3 ± 0.33; that for LWCPVHRAYGYAIHSVKGAH, 1.04 ± 0.34.
With QYYVGYLT, the amyloid nucleation score was -0.738 ± 0.61.
Consider THRTGLDK, for which the amyloid nucleation score stood at 0.319 ± 0.36.
The result for MCCGISMVFGDCSQVSVLIR reads 8.847 ± 0.047; that for PMSDMFYFFGFECSRLIMSN, “inactive”.
The result for GFRIGTLLGTMINSMNCSFI reads 2.88 ± 0.12; that for LVYTPCLILGDELAVTGVKR, -0.337 ± 0.23; that for LYSTRRCHVRELVPLLGARS, 0.362 ± 0.25.
In turn, KEMARTSSSRCDITLQWPAS gave an amyloid nucleation score of 0.562 ± 0.44.
The result for DGFMLMFFTITIRFPNALQV reads “inactive”; that for GCFERGNLFNFV, “inactive”; that for RSCMASEYGT, -0.971 ± 0.64.
The result for HFYHLDTSHSGWDLKSSY reads 4.68 ± 0.075; that for VWVKRVDASSCAVS, 1.26 ± 0.38; that for LAWLCRWGSVTYYCYSFGQV, -0.841 ± 0.62.
The result for VDYYDIQCL reads 0.649 ± 0.36.
In turn, TMLEFNCSYLNI gave an amyloid nucleation score of 2.98 ± 0.083.
The result for CSFCRPFVTCILIRSKVCGW reads 1.21 ± 0.11; that for TCVVSTYLINIQKNVASFER, 6.816 ± 0.041; that for AGKFSWDNPYILLVNTI, “inactive”.
The result for VHGRGNLKA reads 0.032 ± 0.33; that for SLRDARGRSYYRFNIISVML, 5.591 ± 0.033; that for LTTVGHSVKLSWRVLSG, 1.9 ± 0.18.
As to FDSLAKLFSRIVLLLLLNDR, the amyloid nucleation score was -0.032 ± 1.1.
As for MSWAVRDSIHRNYLKFVNRR, the amyloid nucleation score is -0.02 ± 1.1.
The figure for DSSLKLGNTETFIDRSMLCN is -0.407 ± 0.4.
The result for GLVFRS reads “inactive”; that for STPIAEV, 0.6 ± 0.29.
The figure for NYTWGEIYGH is -1.2 ± 0.79; for VLFSHQDEGLWHIHVHF it is 3.28 ± 0.052.
The substance PRILLQSLRI yielded an amyloid nucleation score of 2.47 ± 0.064.
The figure for FNGVLDWEWHGVAFAWAGLV is 0.399 ± 0.65; for SNTHISYYWGTNVWLHVDIN it is 6.194 ± 0.028; for CVCSVYAGNFCLIVLVWLMV it is 0.433 ± 0.74.
The result for FYLKFHRCGR reads 1.3 ± 0.11; that for FSRLTGN, -0.883 ± 0.54; that for YTNSMTHAYTVLWRYMSPTN, 3.52 ± 0.084.
The figure for NGVIRVSWSTR is 6.48 ± 0.087.
Substance SFLFVFSRTGFDCLVDFCFE registered an amyloid nucleation score of -1.76 ± 0.75.
Consider TNYKRCCV, for which the amyloid nucleation score is -0.12 ± 0.32.
The result for IKFVEPYSFLS reads 1.32 ± 0.092; that for TSDPCFFCNST, -0.381 ± 0.79; that for TITNCP, “inactive”.
The figure for IALGLNSYGK is -1.74 ± 0.78.
The figure for YYFWSTFGSYNYLIFCYSIL is -0.656 ± 1.1; for VWFMEVNVKYECTPSYEGRL it is 3.81 ± 0.073; for QMVGWSMYWIKVMRISA it is 0.105 ± 1.1.
The substance SVRLNFEFRDYDCRQVLSIF yielded an amyloid nucleation score of -0.825 ± 1.1.
In turn, YLLFNLHAVYLLVSGEPSPC came in with an amyloid nucleation score of 0.405 ± 0.39.
The figure for FVSVIILCFCVIQPMNLNSV is 1.4 ± 0.15; for MKTSLYRRGNPRLYREKSRK it is 1.01 ± 0.27.
As to TLVCWCLIFNVDKPFCVLML, the amyloid nucleation score entry was “inactive”.
The entry for IILIYVCRRPCLISQDNAFF is “inactive”; for GTPVSLNFVLESRTRYQMGA it is “inactive”.
The figure for SWYILILGFRGKIIYPFRLG is -1.03 ± 0.76; for DTRVSFRFMVTYLIMVYRFL it is 0.774 ± 0.22.
The substance FRCGRVTFNLVEYTFPPWIW had an amyloid nucleation score of -0.78 ± 0.63.
Consider SEFGSNEYRDGLGVYYGST, for which the amyloid nucleation score was -0.542 ± 0.33.
The result for PVRRRGNLFIRRLLSFEKKL reads “inactive”; that for RDIGKYRMYDLTKVRAITLT, -0.353 ± 0.35; that for VHPSDGAGLYS, -1.34 ± 0.78.
The result for FSKGEATDCSWQ reads 0.918 ± 0.34; that for HIVEDLRVSAFTFSIKFISE, 3.33 ± 0.099; that for FSRLNSWILRSHGNKVKALT, 0.552 ± 0.66.
The result for WTTRFSCITTFLRQCPYM reads 0.148 ± 0.79.
Consider RALLW, for which the amyloid nucleation score was -0.094 ± 1.
Consider ILRTDMMINMDLLFGNVGNL, for which the amyloid nucleation score amounted to 3.38 ± 0.089.
For the substance HLNCISRGPMWLNDRMCQCP, the amyloid nucleation score is 1.76 ± 0.12.
The figure for RKNSWDISHPAGTCNIRFIL is 0.339 ± 0.61; for SDFMTKYHHL it is 3.33 ± 0.058.
The entry for GIMYGEFMPLR is “inactive”; for IYMDLLQNQSIR it is -1.27 ± 1.1.
ETSFSTVRRQILSLLRLVSS displayed an amyloid nucleation score of 0.326 ± 0.33.
The figure for RMSIICFALKYILYRWMFRL is 0.988 ± 0.74.

Source of the values: the supplement of paper PMC12042874.
